In PMC4345318, “Dynamic association of PfEMP1 and KAHRP in knobs mediates cytoadherence during Plasmodium invasion” (Scientific Reports, 2015):

T1: VARC (cytoplasmic acidic terminal sequence domain of P. falciparum erythrocyte membrane protein-1, PfEMP1) (Plasmodium falciparum, UniProt Q8IAK2 2467-2757)
T1 construct: also called ATS; cytoplasmic domain of PfEMP1; source: E. coli BL21 (DE3) CodonPlus, purified (Ni-NTA, gel permeation chromatography on Superdex 75)
T1 sequence: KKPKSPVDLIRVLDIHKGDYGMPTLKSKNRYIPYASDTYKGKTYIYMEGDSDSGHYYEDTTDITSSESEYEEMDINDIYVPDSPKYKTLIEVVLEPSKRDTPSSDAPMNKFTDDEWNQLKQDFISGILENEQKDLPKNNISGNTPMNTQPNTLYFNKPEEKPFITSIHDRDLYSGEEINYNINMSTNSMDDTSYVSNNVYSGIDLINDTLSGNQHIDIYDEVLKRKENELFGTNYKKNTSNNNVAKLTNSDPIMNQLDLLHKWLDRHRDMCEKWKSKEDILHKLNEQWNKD

B1: K2A1 (first of the two tandem repeats of the K2A region of knob associated histidine rich protein, KAHRP) (domain or fragment)
chain: KHHSSKKHEGNDGEGEKKKKSKKHKDHDGEKKKSKKHKDNEDAESVKSKK
notes: also called truncated K2A; source: E. coli BL21 (DE3) CodonPlus, purified (Ni-NTA, gel permeation chromatography on Superdex 75); not shown: His6, C-terminal, kept

Columns and labels:
[1] = molecular target: VARC (acidic terminal segment, cytoplasmic domain fragment of PfEMP1, comprising VARC A and VARC B); assay: ITC (GE MicroCal ITC200); conditions: pH 6.9, 298 K, 0.013 M (no added salt), 10 mM sodium phosphate
[2] = molecular target: T1, VARC (cytoplasmic acidic terminal …); assay: ITC; 0.7 mM K2A1 in the syringe, 0.07 mM VARC in the cell; 298 K; 10 mM sodium phosphate pH 6.9, 5 mM DTT, no additional salt; 40 injections of 1 μL; fitted to a sequential four site model, and to a simple hetero-association model (A + B <-> AB) in SEDPHAT for an apparent global Kd; conditions: both partners purified
[3] = molecular target: T1, VARC (cytoplasmic acidic terminal …); assay: NMR titration; 2D [15N,1H] HSQC of 10 μM 15N-labelled K2A1 with unlabelled VARC added at 1:1, 1:2.5, 1:5, 1:7.5 and 1:10 molar ratios; 278 K; 10 mM sodium phosphate pH 6.2, 5 mM DTT, no additional salt (ionic strength 0.013 M); Kd by fit of amide chemical shift perturbations; the 1:5 complex also measured at 20, 50, 100 and 150 mM NaCl; conditions: both partners purified

Molecule	Kd (first value, four-site sequential model) [1] [µM]	Kd (fourth value, four-site sequential model) [1] [µM]	Kd (second value, four-site sequential model) [1] [µM]	Kd (third value, four-site sequential model) [1] [µM]	Kd [2] [µM]	Kd of site 1 (four-site binding model) [2] [µM]	Kd of site 2 (four-site binding model) [2] [µM]	Kd of site 3 (four-site binding model) [2] [µM]	Kd of site 4 (four-site binding model) [2] [µM]	Kd [3] [µM]
K2A1 (first tandem repeat of the K2A lysine-rich region of knob-associated histidine-rich protein, KAHRP)	9.8	9.6	10.3	10.1						
B1					32.1	9.8	10.3	10.1	9.6	7 to 15
